From the DeepSol protein solubility set

Experiment: soluble on expression in E. coli; label from the status in PepcDB or PDB records

Row | Sequence | soluble on expression in E. coli
1 | MMIDDSKVSFVIPTINEEGTIGSVIDGIRSEFPNSEIIVVDTNSTDRTREIARSKGARVIEEPRRGYGRAYQTGIPAASGEIIVCMDGDGTYPTDVVKPLIELLIADRVDFISCDRITFRTSKNYTTLHYVGNMVLNLTIRILFKVRMVDSQSGMWVFRSEIYRKMKNLGNGMSFSQNIKIEAVRHGVFMEIPIRYGVRITKPKLKTWHDGFHNLFALFVKRVSE | not soluble
2 | MVRFRREGVRLDQAVAEALSVSRAKAQAWIQAGRVRVGDRVVLKPAYRLKGEEVAVEPVEEAPMVLPEDLPIPILYEDEDVLALNKPPGLLTHPAPGVYSGTVVNLLLARYYGPVEKGPPELVRPGIVHRLDKDTSGVLVVAKHGGDLEGLARAFRDRLVMKRYLAITEGHPREGVLIAPIGRHPRERHKMHVGGLAARYAETEFQVLATAGPYALVEARPHTGRTHQIRVHLKYLGAPILGDELYGRKSPHIGRQALHAYELRIPHPRTGRILELLAPVPQDMAAAWEALGGRWPEEVVREGYAGAQ | soluble
3 | MGSDKIHHHHHHIFSSCTDDFEKLNTSNIQVDPADLPFAAQCTEPMTYCYPPQQNMFQFWTNLTIDLYGGYFMTPNGNFTNGDMGENRGHSGGMYENYYLHIFNNTRRIIAQCDASGERGLSGVMRIVQAYGTLMTTDAYGPIPYSSILSGENEVYFEFDSQKDLYKAMLEDLSTAITDISAMGADEIAKLKSFDCWCNGDKDLWVKIANTMKLRMALRLSKRETEAGNAGMNLKAIATEAAQNTLATVNKDILIDKSLENEMWLMFNWGDCGFNANLVTIMSGTKDPRQPLYMTLNTGDIKNEAGTTTVAANSQYLGIRFASGLPAKPNSWGNFSGWIQGNNGSSYSMPLPIMKAAEAYFLLAEAKLRWDIGSESVKNLYENGIRVSMTNELAYRGAYAGIKEYPEGAVDAYINGTSTQIDYTDPIKAELSTPAVNKLSVKWDESASNEEKLERIITQKWLALFPLSTEGWAEQRRTGYPRFFPAFVNESNGAVNTEEGVRRVIYSSQAYDANAKGVEGGIKLLDEENSSKFGISGDKGGTHLWWDNADKGNF | not soluble
4 | MSLETQDHTLYVLLGPTGVGKTDLSLDIAERLGSPIISADSRQIFRELPIGTAAPTPEQRARVPHLFVGTHSVRDYYSAGMYEVEVLEALKELFRKYRGVLLTGGSMMYIDAVCRGIDDIPDPFPEVREELYARYAAEGLDGILAQLRLLDPDYYAKVDRRNYKRVIHGLEICLSTGRPFSSFHRHEAKERPFRIVKIGLYREREELCKRIDARVLEMMEQGLEEEARAVYPLRHLNALNTVGYKEMFEYFDGSIDRAEAVRRIQRNSRVYARKQMTWFRRDSTIRWFHPEADKGTVLTLVTEGHHHHHH | soluble
5 | MGSDKIHHHHHHMFETITPESIKENILNELALVDVREGSYTNNLVSPTALAIWKLYDSLNALIPMVYVDETSGVYIDKKAAHYGITRKSGTKATAVLHFTGVDGKVVPKGTVFLTGDGLEFVTESAVTITAGAARTTAIAAEAGEAYNVPGGSITQQIVSISGLTGVTNDAAVGGTDPESDKSLVERLYAYLRKPATSGNVYHYEQWALAVDGVGGVKVAPLWNGPGTVKVLIVSPAKAPVDQEVVTRCADHIQQNRPIGAAVTVESASALMINVEATITIESTTTKSAVKEAFANSLNAYLQSIAFEKYELIYNRLAFMLLDIEGVIDYEDLTVNGGTSNITIAANEVPVAGMVVIS | not soluble
6 | SLNAAAADRNKDPILSVLKSRVASNRRLFALEISSGTGQHVVHFAKAFPNITWQPSEVETQSLSSIEAYRQYHRLQNVQPPIYLDVSQSWQTWGGFPAESCDLIININMMHISPLACTTGLFHGVGQILKPQGLLLTYGPYAFNGSIVPQSNFDFDQSLRYRNPEWGLRDASFLTTLGQENGLRLEEIVDMPANNKCLLFRKDSVV | soluble
7 | SEEGSNKREGYNDQKQQARAGCGKELAVEEMIAAVSERKKGCCPPPPPPHGAPATPARNRPQTQGRGAAAPVVGWPPIRSFRRNLASSSSSKHSPEPQNDNANAKVTLTCKKNPLVKINMDGIPIGRKIDLAAYNSYDGLSSAVKQLFHGFLQAQKDQTNAQIAQQGADDKIFYQLLDGSGEYTLVYEDSEGDRMLVGDVPWKVFVSTAKRLRVLRSSELSHTLIGATARV | soluble
8 | GHMAGGTKRLPRAVREQQMLDAAVDVFSDRGFHETSMDAIAAKAEISKPMLYLYYGSKDELFAACIQREGLRFVEALAPAGDPGLSPREQLRRALEGFLGFVGKHRKSWMVLYRQAMGQQAFVGSVQSSRDRLIELTAHLLESSTKDPEPGQDFELIAIALVGAGEAVADRVAGGEIEVDAAADLLESLAWRGLAGKKKPEGS | soluble
9 | THSEEEIKIIASESQKGGVLDEFETEIIRNAVDFSDTVAKEIMTPRKDMICLNKQKSYEENMQIICEHKHTRFPYIDGSKDTILGMIHIRDIIQNELNHKSQNLDTFVKPLILVPENISISKVLVMMNKERSHTALVVDEYGGTAGILTMEDIMEEIIGEIKSEHEEDSYKKLA | soluble
10 | MRLPHQLTGSRFFSFSDEGEFLKSVSAVVDEEEFVRIGSLVQAGLMPITSKEVLATMLGVNPGIIWSLENKPERYYRRFKIPKGKGEREIVAPKVGLKVIQKWFSVQLQDCARIDDHVFGFVPGRSHIDAASVHTNANWVYSIDLTNFFPSTPINWVASSLINIGYDADSADRISKLCCYRGALAQGSPASPVLSNISMRGIDAALGALAAEMDVRVTRYADDITFSAAGEFPQVLPERLESLFSQTPWKISQEKTYFSEAPVRLKVHGLVVNGNTVKLTKGYRNKLRAYRHVLQTNRCRQEDLARLSGHVRYASQVSSRDDLEHHHHHH | not soluble
11 | MGAMESLRWMEARLPEILKDLEAFVRRESPSGDLEGLEAAARFLEEAFGPLEGRLSRKDTPAGPVLLLKREGEGAPVLLLCHYDTVHPKGSFPEPFRLEREKAIGPGVYDMKGGIIALLYALRYAEATGRRLPALEVLFTPDEEVGSPESRPLIEAAAKKARAVLVLEPPTAEGHLKVARKGVGLYRLRAIGKAAHQGVEPEKGVNAILELAHQVLKVAALEDREKGTTLGPNRIRGGTATNVVAEEAEVEIDLRAWTLEEVQRVEEGLKALKPVLPGARLVLSGGLNRPPMEPTEASLALFAKARAIGEALGLRLEPGRVGGGSDGNFTAALGVPTLDGLGLFGGNAHQKTEYVVVPEIPRRTALLAELLAAL | soluble
12 | AESESFVLDFSQPSADYLDFRNRLQADHVCLENCVLKDKAIAGTVKVQNLAFEKTVKIRMTFDTWKSYTDFPCQYVKDTYAGSDRDTFSFDISLPEKIQSYERMEFAVYYECNGQTYWDSNRGKNYRIIRAELKSTQGMTKPHSGPDLG | soluble
13 | MVTAPPTDYFASFTTNDDALVLASVSSDAELELLNVWLRTHRREHPDSKVDVLQLPAADEPAPGDLARLVEELEADENRLVVPVRVFWVPGGLPTRLKVVALMSGRDTYRPPEILQRRILRKDPSRARVVAGEPAKVSELRKQWSETTVGENPRDFAHFVLRRAVLAIERVELRLLGPEYKSPRLVKPEMMASSRFREGLAKIPGATPEKAGEMLDELSTGWSRFSVDLIPSLGRAIFSRGFDPRIDYDRIEIEQMRHALEQHPAVLLFSHRSYLDGVIVPVAMQENRLPPVHTFAGINLSFGIMGPIFRHSGVIFLRRKLDDPLYKYVLRQYVGYLVEKRFNLNWSIEGTRSRTGKMLPPKLGLLAYVADAYLDGRSDDILLQPVSISFDQLHETAEYAEYARGGEKRPEGLSWLYNFVKAQGERNYGKIYVRFPEAVSMRQYLGEPHGPLVEDEAAKRLAMQKMAIEVAWRILRVTPVNATNLVSALLLTARGVALTLEQLHQALQDSLDYLEQKKTPVTNSAMRLRTLEGVRAAVDALSGGHPVTCVDTGREPVWRIAPENELEAAFYRNSLIHAFLETSLVELALAYAARTADAEGDPLQAFWTQVVRLRDLLKFDFYFADSAAFHQNVAEEMSWHADWEQQVRAGRDGIETLMRAKRPLLADAMLRPYFEAYTIVADVLRDAPAEIAEKDLTKLALGVGQQYVAQGRVRNNESVSALLFATARQVAADQGLLEHGPDLMEQRRAFRDELRGILRDLDTVDRYARELFAARERERRTKRDEAVLEHHHHHH | soluble
14 | MNEKVFRDPVHTYIHVNNQVIYDLINTKEFQRLRRIKQTSTTSFTFHGAEHS | not soluble
15 | MHLLPELASHHAVSIPELLVSRDERQARQHVWLKRHPVPLVSFTVVAPGPIKDSEVTRRIFNHGVTALRALAAKQGWQIQEQAALVSASGPEGMLSIAAPARDLKLATIELEHSHPLGRLWDIDVLTPEGEILSRRDYSLPPRRCLLCEQSAAVCARGKTHQLTDLLNRMEALLNDVDACNVN | not soluble
